The values below come from publication PMC10917881, “Biochemical characterization of L-asparaginase isoforms from Rhizobium etli—the boosting effect of zinc” (Frontiers in Chemistry, 2024).

Substrate in data set [1]: NC(=O)C[C@H](N)C(=O)O
The experiment in a line: ITC multiple injection method (heat-rate). As to conditions: Tris-HCl pH 9.0, 37°C. Type of data set: biochemical, Rhizobium etli. From the text:
ITC multiple injection method (heat-rate) on ReAV

Substrate in data set [2]: C=CC(N)=O
The data set is described as follows: ITC, Michaelis-Menten fit. Type of data set: biochemical, Rhizobium etli. As to conditions: possible substrate only: heat signal, product not confirmed by Nessler, protein adduct not excluded; fit before product inhibition / inactivation. From the text:
ITC, Michaelis-Menten fit on ReAIV | after acrylamide injection into the reaction cell containing ReAIV, but not ReAV
For orientation: ITC needs no label: the signal is the heat of the interaction.

Substrate in data set [3]: NC(=O)C[C@H](N)C(=O)O
The experiment in a line: ITC multiple injection method (heat-rate). Type of data set: biochemical, Rhizobium etli. As to conditions: 10 mM Tris-HCl pH 9.0, 37°C, with optimal 1 µM Zn2+ (metal cofactor). From the text:
ITC multiple injection method (heat-rate) on ReAIV

Substrate in the data set “purified protein”: NC(=O)C[C@H](N)C(=O)O
The experiment in a line: purified protein. As to conditions: 10 mM Tris-HCl pH 9.0, 37°C, with optimal Zn2+ (metal cofactor).

Setting [4] is: with optimal 2.5 µM Zn2+ (metal cofactor).

B1: ReAV (Rhizobium etli CFN 42) (protein)
chain: MTPSEDFVVTDRGGIVENSHRVHAAVVDAKGRLLYALGNPTRMTLARSAAKPAQALAILETEGVAGYGFDDADIALMCASHSSEDRHIARTRAMLSKIKAEEADLRCGGHPSLSEMVNRSWIKQDFIPTAVCSNCSGKHVGMLAGARAIGAGTDGYHLPDHPMQGRVKRTVAELCDLDAGDVEWGTDGCNLPTPAFPLDRLGRIYAKLASAADGSDAGEGQSTRCAALAHIFRAMARHPEMVAGEGRYCTMLMRAFDGALVGKLGADASYAIGVRASDATRQLGTDGALGISVKIEDGNLEMLYAVVTELLERLGIGSPDVRSQLASFHHPQRVNTMGVTTGGVSFPFKLRGSKSNVDDPRLAAVAR
notes: full length, 367 residues; N-terminal 6xHis tag cut off by TEV (pET151D); E. coli BL21 Gold (DE3); homodimer
As usually defined, the Km is the substrate concentration at which the rate is half of its maximum. The term kcat denotes the maximal rate divided by the concentration of active sites. As usually defined, the kcat/Km is the turnover number divided by the Michaelis constant. For B1, in data set [1] (setting [4]), the Km was 2100 ± 200 µM, the kcat amounted to 603 ± 24 s⁻¹ and the kcat/Km was 294000 ± 31000 M⁻¹ s⁻¹.

B2: ReAV (Rhizobium etli CFN 42; K138A) (protein)
chain: MTPSEDFVVTDRGGIVENSHRVHAAVVDAKGRLLYALGNPTRMTLARSAAKPAQALAILETEGVAGYGFDDADIALMCASHSSEDRHIARTRAMLSKIKAEEADLRCGGHPSLSEMVNRSWIKQDFIPTAVCSNCSGAHVGMLAGARAIGAGTDGYHLPDHPMQGRVKRTVAELCDLDAGDVEWGTDGCNLPTPAFPLDRLGRIYAKLASAADGSDAGEGQSTRCAALAHIFRAMARHPEMVAGEGRYCTMLMRAFDGALVGKLGADASYAIGVRASDATRQLGTDGALGISVKIEDGNLEMLYAVVTELLERLGIGSPDVRSQLASFHHPQRVNTMGVTTGGVSFPFKLRGSKSNVDDPRLAAVAR
notes: as for B1
As for B2, the Km in data set [1] (with optimal Zn2+ (metal cofactor)) amounted to 500 ± 100 µM.

B3: ReAIV (Rhizobium etli CFN 42) (protein)
chain: MTNPVTVEVTRGLLVESRHRGAVAVVDGDGKLFFSLGDIDTAVFPRSACKAMQALPLVESGAADAYGFGDKELALACASHNGEEEHVALAASMLSRAGRNVEALECGAHWSMNQKVLIQQARSLDAPTALHNNCSGKHAGFICACCHRDIDPKGYVGYEHPLQVEIRAVMERLTGAVLGAESCGTDGCSIPTYAMPLRNLAHGFARMATGTGLEPLRAKASRRLIEACMAEPFYVAGSGRACTKLMQIAPGRIFVKTGAEGVFCAAIPEKGIGISLKSEDGATRAAEAMVAATLARFFETEETVHAALMAFAAMPMRNWNGIHVGDIRATSVFSA
notes: full length, 335 residues; N-terminal 6xHis tag cut off by TEV (pET151D); E. coli BL21 Gold (DE3); homodimer
Regarding B3, in data set [2], the Km worked out at 5500 µM and the kcat was 12.6 s⁻¹. In data set [3], the Km stood at 1500 ± 100 µM, the kcat amounted to 770 ± 17 s⁻¹ and the kcat/Km was determined as 526000 ± 34000 M⁻¹ s⁻¹.

B4: ReAIV (Rhizobium etli CFN 42; K137A) (protein)
chain: MTNPVTVEVTRGLLVESRHRGAVAVVDGDGKLFFSLGDIDTAVFPRSACKAMQALPLVESGAADAYGFGDKELALACASHNGEEEHVALAASMLSRAGRNVEALECGAHWSMNQKVLIQQARSLDAPTALHNNCSGAHAGFICACCHRDIDPKGYVGYEHPLQVEIRAVMERLTGAVLGAESCGTDGCSIPTYAMPLRNLAHGFARMATGTGLEPLRAKASRRLIEACMAEPFYVAGSGRACTKLMQIAPGRIFVKTGAEGVFCAAIPEKGIGISLKSEDGATRAAEAMVAATLARFFETEETVHAALMAFAAMPMRNWNGIHVGDIRATSVFSA
Take B4: in “purified protein”, the Michaelis-Menten constant (Km) was determined as 2300 ± 100 µM, the kcat worked out at 158 s⁻¹ and the catalytic efficiency (kcat/Km) stood at 70000 M⁻¹ s⁻¹.
